Experimental data taken from PMC3217859, “Protein phosphatase 2a (PP2A) binds within the oligomerization domain of striatin and regulates the phosphorylation and activation of the mammalian Ste20-Like kinase Mst3” (BMC Biochemistry, 2011).

Assays:
[1] = target: T1, HA-tagged Δ(3-309) striatin (human, UniProt O43815 1-780, Δ(3-309)); experiment: co-IP; anti-HA immunoprecipitates (12CA5 with protein A-Sepharose, or F7 anti-HA-agarose when probing for Mst3 or Mst4; 1.5 h, 4°C) of lysates (1% Nonidet P-40, 0.135 M NaCl, 10% glycerol, 20 mM Tris pH 8.0) of HEK293 cells transfected with HA-striatins; endogenous partners by immunoblot, partner/HA-striatin ratio by chemilumimager against wild type; 50 mM NaF and 100 nM okadaic acid in the lysis buffer in the …; details: partners not purified
T1 construct: source: HEK293, transfected, in lysate; not shown: HA, N-terminal, kept
T1 sequence (looked up): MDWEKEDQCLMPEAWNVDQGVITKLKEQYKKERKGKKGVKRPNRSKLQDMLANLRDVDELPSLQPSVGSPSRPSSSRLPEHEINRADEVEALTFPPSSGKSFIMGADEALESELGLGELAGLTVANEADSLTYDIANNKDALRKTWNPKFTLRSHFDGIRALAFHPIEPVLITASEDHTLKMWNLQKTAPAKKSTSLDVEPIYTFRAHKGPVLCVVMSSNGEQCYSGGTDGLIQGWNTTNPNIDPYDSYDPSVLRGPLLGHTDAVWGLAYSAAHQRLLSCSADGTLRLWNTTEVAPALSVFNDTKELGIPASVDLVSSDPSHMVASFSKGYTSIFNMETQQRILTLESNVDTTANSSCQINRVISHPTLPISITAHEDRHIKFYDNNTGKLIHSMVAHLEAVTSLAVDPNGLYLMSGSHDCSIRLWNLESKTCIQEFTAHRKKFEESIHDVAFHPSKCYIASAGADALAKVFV

[2] = target: T2, HA-tagged F457Stop striatin (human, UniProt O43815 1-456); experiment: as above; details: partners not purified
T2 construct: striatin, human, C-terminal truncation by a stop codon at F457 (loss of seven of eight WD-repeats); residues 1-456 by the mutant's name; source: HEK293, transfected, in lysate; not shown: HA, N-terminal, kept
T2 sequence (looked up): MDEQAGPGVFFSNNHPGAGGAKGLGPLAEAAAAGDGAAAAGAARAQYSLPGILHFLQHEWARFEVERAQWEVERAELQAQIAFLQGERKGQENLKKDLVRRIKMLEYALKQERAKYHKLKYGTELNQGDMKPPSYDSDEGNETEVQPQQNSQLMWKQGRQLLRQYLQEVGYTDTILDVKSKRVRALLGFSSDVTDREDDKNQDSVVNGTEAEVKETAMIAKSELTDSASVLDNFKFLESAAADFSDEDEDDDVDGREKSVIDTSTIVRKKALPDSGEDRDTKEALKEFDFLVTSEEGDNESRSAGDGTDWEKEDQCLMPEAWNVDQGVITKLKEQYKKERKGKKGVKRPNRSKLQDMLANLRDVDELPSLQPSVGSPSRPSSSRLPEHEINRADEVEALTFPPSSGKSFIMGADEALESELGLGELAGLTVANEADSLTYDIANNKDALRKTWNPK

B1: Mob3/phocein (natural protein, human (endogenous in HEK293), UniProt Q9Y3A3 1-225, looked up)
chain: MVMAEGTAVLRRNRPGTKAQDFYNWPDESFDEMDSTLAVQQYIQQNIRADCSNIDKILEPPEGQDEGVWKYEHLRQFCLELNGLAVKLQSECHPDTCTQMTATEQWIFLCAAHKTPKECPAIDYTRHTLDGAACLLNSNKYFPSRVSIKESSVAKLGSVCRRIYRIFSHAYFHHRQIFDEYENETFLCHRFTKFVMKYNLMSKDNLIVPILEEEVQNSVSGESEA
notes: source: endogenous, HEK293 lysate
percent of the wild-type level bound [1]: ~40 % of wild-type level
percent reduction in binding against wild-type striatin [2]: 29%
